Experimental data taken from publication PMC9633773, “Discovering cell-active BCL6 inhibitors: effectively combining biochemical HTS with multiple biophysical techniques, X-ray crystallography and cell-based assays” (Scientific Reports, 2022).

Biological target: BCL6 BTB domain (BCL6 5-129, tag removed by HRV-3C protease) (human) (UniProt P41182)
Experiment: fluorescence polarisation; competition: 10 nM BCOR-AF633, 3 µM BCL6 BTB, unlabelled peptide varied; 20 mM Hepes/NaOH pH 8.0, 150 mM NaCl, 0.5 mM TCEP, 0.05% Tween 20, 1-2% DMSO; 2 h at room temperature

WVIP tetrapeptide (Ac-WVIP-NH2) was tested, and the % inhibition at 980 µM was 16%.
